Test results: the nanobody polyreactivity screen of Harvey et al. (2022)

Assay: yeast display, Sf9 membrane polyspecificity reagent, FACS + sequencing; frameworks hold sequencing errors
Summary of the method: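 Nanobodies from a synthetic yeast display library (Saccharomyces cerevisiae BJ5465), induced 36–48 hours with galactose, were stained 1 hour at 4 °C with 10% biotinylated, detergent-solubilized Sf9 membrane reagent, enriched on streptavidin microbeads, then FACS-sorted. Anti-HA (expression) and streptavidin (reagent binding) fluorescence set low and high (top ~1%) gates. Polyreactivity labels come from the gate of origin. Genes were colony-PCR amplified, MiSeq 2 × 250 sequenced and filtered by CDR length.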

Sequence	polyreactivity (PSR sort gate)
QVQLVETGGGLVQAGGSLRLSCAASGRIFSPYALGWYRQAPGKERELVAAISYDDGITYYADSVKGRFTISRDNAKNTVYLQMNSLKPEDTAVYYCAADSVTRPAGDYWGQGTQVTVSS	low polyreactivity
QVQLVETGGGLVQAGGSLRLSCAASGRIFSVYAMGWYRQAPGKERDLVAGITSSGGSTYYADSVKGRFTISRDNAKNTVYLQMISLKPEDTAGYYCATRQVSRLYPYRYNYWGQGTQVTVSS	high polyreactivity
QVQLVETGGGLVQAGGSLRLSCAASGRTFAGNAMGWYRQAPGKERELVAGISSGGSTNYADSVKGRFTISRDNAKNTVYLQMNSLNPEDTAVYYCAKRYFRKGYPLFHYAYGYWGQVTQVTVSS	high polyreactivity
QVQLVETGGGLVQAGGSLRLSCAASGRTFAKYAMGWYRQAPGKERDLVASISGRGTNTYYADSVKGRFTISRDNAKNTVYLQMNSLKPEDTAVYYCAATYVYPYRDSHYFYWGQGTQVTVSS	high polyreactivity
QVQLVETGGGLVQAGGSLRLSCAASGRTFGNYAMGWYRQAPGKERELVAAITSAGRTYYADSVKGRFTISRDNAKNTVYLQMNSLKPEDTAVYYCAVSVIYWSGSQVSVEYYYWGQGTQVTVSS	low polyreactivity
QVQLVETGGGLVQAGGSLRLSCAASGRTFGPYVMGWYRQAPGKERELVAGITSGGSTNYADSVKGRFTISRDNAKNTVYLQMNSLKPEDTAVYYCNADYVIYFGLYEYWGQGTQVTVSS	low polyreactivity
QVQLVETGGGLVQAGGSLRLSCAASGRTFLYYAMGWYRPEPGKERELDAAIRRGSSTYYADSVKGRFTISRDKAKNTVYLQMNSLKPEDTAVYYCAARGRYRIGQGRYGKRYDYWGQGTQVTVSS	high polyreactivity
QVQLVETGGGLVQAGGSLRLSCAASGRTFRWYAMGWYRQAPGKERELVADISSVGSTDYADSVKGRFTISRDNAKNTVYLQMNSLKPEDTAVYYCAADFSPRRYHNRSFGYWGQGTQVTVSS	low polyreactivity
QVQLVETGGGLVQAGGSLRLSCAASGRTFYFNTMGWYRQAPGKERELVAAISSGVNTYYADSVKGRFTISRDNAKNTVYLQMNSLKPEDTAVYYCAASARTYVQSGYWGQGTQVTVSS	high polyreactivity
QVQLVETGGGLVQAGGSLRLSCAASGSIFPGNAMGWYRQAPGKERELVAVIDFSGASTYYADSVKGRFTISRDNAKNTVYLQMNSLKPEDTADYWGQGTQVTVSS	low polyreactivity
QVQLVETGGGLVQAGGSLRLSCAASGSIFTYYTMGWYRQAPGKERELVAAINGRGHSTYYADSVKGRFTISRDNAKNTVYLHMNSLKPEDTAVYYCARRRQYEYNYWGQGTQVTVSS	high polyreactivity
QVQLVETGGGLVQAGGSLRLSCAASGSIFVYYAMRWYRQAPGKERELVAAITIGASTDYADSVKGRFTISRDNAKNTVYLQMISVKPEDTAVYNCAADLYYGDYRTLPKADEYDYWGQGTQVTVSS	low polyreactivity
QVQLVETGGGLVQAGGSLRLSCAASGSIFWYYAMGWYRQAPGKERELVAAISAYGSSTYYADSVKGRFTISRDNAKNTVYLQMNSLKPEDTAVYYCAATYILYNDWLYHYFPEEYDYWGQGTQVTVSS	low polyreactivity
QVQLVETGGGLVQAGGSLRLSCAASGSTFESNTMGWYRQAPGKERELVAAISYSGGRTYYADSVKGRFTISRDNAKNTVYLQMNSLKPEDTAVYYCAARWSVSYQYWGQGSQVTVSS	high polyreactivity
QVQLVETGGGLVQAGGSLRLSCAASGSTFPRYAMVWSRQAPGKESEYVAVNWSGGSTYYADSVKGRFTISRDNAKNTVYLQMNSLKPEDTAVYYCAAEYHTLSKYSGYATHDYWGQGTQVTVSS	low polyreactivity
QVQLVETGGGLVQAGGSLRLSCAASGSTFSRYPMGWYRQAPGKEWELVAAITGTGGRTYYADSVKGRFTISRDNEKNTVYLLMNSLKPEDTAVYYCAAQRWTVKYNYWGQGTQVTVSS	high polyreactivity

Sequence	polyreactivity (PSR sort gate)
QVQLVETGGGLVQAGGSLRLSCAASGSTFVRYTMGWYRQAPGKERELVAAISQRDSRTYYADSVKGRFTISRDNAKNTVYLQMNSLKPEDTAVYYCAARSWWYRSATYNYWGQGTQVTVSS	high polyreactivity
QVQLVETGGGLVQAGGSLRLSCAASGYIFGYVMGWYRQAPGKERELVAAITYSSGNTYYADSVKGRFTISRDNAKNTVYLQMNSLKPEDTAVYYCAKQAYYKGRLAYGYWGQGTQVTVSS	high polyreactivity
QVQLVETGGGLVQAGGSLRLSCAASGYTFDGYAMGWYRQAPGKERELVAAINSGGGTYYADSVKGRFTISRDNAKNTVYLLMNSQKPEDTAVYYCAAERVYSDMDYWGQGTQVTVSS	low polyreactivity
QVQLVETGGGLVQAGGSLRLSCAASVRIFFVYAMGWYRQAPGKERELVAAITYDDGDTFYADSVKGRFTISRDNAKNTVYLQMNSLKPEDTAVYYCAAEGYSYIQSDLDYWGQGTQVTVSS	high polyreactivity
QVQLVETGGGLVQAGGSLRLSCAAYGFTFEYNAMGWYRQAPGKERELVAAITTTGSTYYADSVKGRFTISRDNAKNTVYLQMNSLKPEDTAVYYCAADPVWRGYSYQFDYWGQGTQVTVSS	low polyreactivity
QVQLVETGGGLVQAGGSLRLSCADSGSIYQKNAMGWYRQPPGKERELVAAITSGGTTYYADSVKGRFTISRDNAKNTVYLQMYSLKPEDTAVYYCAKYHCRLSFSRYPYDYWGQGTQVTVSS	high polyreactivity
QVQLVETGGGLVQAGGSLRLSCADSGSTFPGNGMVWSRQAPGKERELVAGISSGGRTYYADSVKGRVTISRDNAKNTVYLQLNRLKPEDTAVYYCATEGDYFAKYDRMDYWGQGTQVTVSS	low polyreactivity
QVQLVETGGGLVQAGVSLRLSSAASGITIGKNAMGWYRQEPGKESELVAAITRDGGTNYADSVKGRFTISRDNSKNTVYLQMNRLKPEDTAVYYCAKRAYFYYGRYDYWGQGTQVTVSS	low polyreactivity
QVQLVETGGGLVQASGSLRLSSAASGRIFTRYAMGWYRQAHGKERELVPAITRGGSTYYADSVKGRFTISRDNAKNTVYLQMNSLKPEDTAVYYCAADWFGISVVRDPFDHWGQGTQVTVSS	high polyreactivity
QVQLVETGGGLVQEGGSLRLSCAASGRTFYSYAMGWYRQAPGKERELVARISSGGSTNYADSVKGRFTISRDNAKNTVYFQMNSLKPEDTAVYYCAAVRHRAMDYWGQGTQVTVSS	low polyreactivity
QVQLVETGGGVVQAGGSLRLSCAASGRTFGFNAMGWYIQAPGKERELVASITSTGGRTYYADSVKGLFTISRDNAKNTVYLQMNCLKPEDTAVYYCAAGSRSRAPYYRTIVDTYGYWGQGTQVTVSS	low polyreactivity
QVQLVETGGVLVQAGGSLRLSFAASGIIFSISALGGYRQAPGKERELVAAITYSGGRTYYADSVKGRFTISRDTAKNTVYLQMNSLKPEDTAVYYCAADYYYYGSYYPVEYWGQGTQVTVSS	high polyreactivity
QVQLVETRGGLVQAGGRLRLSCAASGGIFPVNAMGWYRQAPGKERELVAAISWSVGRTYYADSVKGRFTISRDNAKNTVYLQMISLKREDTAVYYCAAEWFGVYRRYKYDYCGQGTQVTVSS	low polyreactivity
QVQLVETVGGLLQAGGSLRLSCPASGSTLYYNTMGWYRQAPGKERELVATISSRGGRTHYADSVKGRFTISRDNAKNTVYLQMNSLKPEDTAVYYCNALPRVVYTVGQSPFYYWGQGTQVTVSS	high polyreactivity
QVQLVETVGGLVQAGGSLRLSCAASGSIFTHYAMGWYREAPGKERELVAAITWSGGSTYYADSVKGRFTISRDNAKNTVYLQMNSLIPEDTAVYYCNVAWVGVSLVYGPFEYDYWGQGTQVTVSS	high polyreactivity
QVQLVETWGGLVQAGGSLRLSCAASGRNFRTNAMGWYRQAPGKERELVAAITSDGTYYADSVKGRFTISRDNAKNNVYLQMNSVKPEDTAVYYCNVDDRETRDDYWGQGTQVTVSS	low polyreactivity
